This note sets out measurements from publication PMC4324565.

The assay concerns the target biotinylated gp120 165-182 peptide (HIV-1 (AE.A244)). Briefly: BLI. (In general: BLI is a label-free optical method that tracks binding on a fibre tip over time.)

Usually Kd stands for the free concentration of one partner at which half of the binding sites on the other are occupied at equilibrium, for simple one-to-one binding. Low values mean higher affinity, high ones lower affinity.

B1: CH59 unmutated ancestor (CH59-UA) Fab (Fab, V domains shown)
VH: EVQLVESGGGLVQPGRSLRLSCAASGFTFDDYAMHWVRQAPGKGLEWVSGISWNSGSIGYADSVKGRFTISRDNAKNSLYLQMNSLRAEDTALYYCAKDSPRGELPFDYWGQGTLVTVSS
VL: SYELTQPPSVSVSPGQTARITCSGDALPKKYAYWYQQKSGQAPVLVIYEDSKRPSGIPERFSGSSSGTMATLTISGAQVEDEADYYCYSTDSSGNHRVFGGGTKLTVL
B1 came in with a Kd of 500 nM.
